Broadly, the Kd is the constant that tells how readily two partners part at equilibrium.

For assay [1], the target named is T1, β-amyloid (Aβ) (UniProt P05067 672-711, limits assumed).
T1 construct: Aβ is a fragment of it; also called beta amyloid; Ab40
The experiment in a line: not stated (clone from standard affinity maturation of H1).

Assay [2] concerns the target T1, β-amyloid (Aβ). The experiment in a line: not stated (standard affinity maturation).

T1 sequence (P05067 672-711 limits assumed): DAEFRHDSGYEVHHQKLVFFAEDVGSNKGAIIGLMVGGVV

B1: H1v2 anti-Ab40 scFv (scFv)
scFv: MAEVQLVESGGGVVRPGGSLRLSCAASGFTFDDYGMSWVRQAPGKGLEWVSGINWNGGSTGYADSVKGRFTISRDNAKNSLYLQMNSLRAEDTAVYYCARRRYALDYWGQGTLVTVSRGGGGSGGGGSGGGGSSELTQDPAVSVALGQTVRITCQGDSLRSYYASWYQQKPGQAPVLVIYGKNNRPSGIPDRFSGSSSGNTASLTITGAQAEDEADYYCNSRDSSGNHVVFGGGTKLTVLG
notes: also called H1v2 clone
As to B1, binding in the assay with β-amyloid (Aβ) [1] was characterised by a dissociation constant (Kd) of 247 nM. The “fold increase in affinity over the parent H1 scFv” value in the assay with β-amyloid (Aβ) [2] was around 5 fold.

The values above are taken from patent publication US9512212 (ARIZONA BOARD OF REGENTS A BODY CORPORATE OF THE STATE OF …, dated 2016).
